To fix the notation:
B1: 2H8.06 (antibody, human IgG1, V domains shown)
VH: EVQLQQSGAELVRPGTSVKLSCKASGYTFNNYWMHWVKQRPGQGLEWIGMIDPSDDDIKNNQKFKGKATLTVDTSSSTAYMQLISLTSEDSAVYYCARSGVALPYWGQGTLVTVSA
VL: DIVMTQSQKFMSKSVGDTVSVTCKASQDVGRNVAWYQQKSGQSPKSLIYSASHRYSGVPDRFTGSGSGTDFTLTISNVQSEDLADYFCQQYNSYPYTFGGGTRLEIK
notes: human IgG1/kappa; also called 2H8_HCvar6 + 2H8_LC
B2: 2H8.40 (antibody, human IgG1, V domains shown)
VH: EIQLQQSGTELVRPGTSVKLSCKASGYTFTNYWMHWVKQRPGQGLEWIGMIDPSAAYTNYNQNFKGKATLTVDTSSGTAYMQLSSLTSEDSAVYYCARSGVAFPYWGQGTTVTVSS
VL: DILMTQSQKFMSTSVGDRVSVTCKASQNVGRNVAWYQQISGQSPKPLIYSASHRYSGVPDRFTGSGSGTDFTLTISNVQSEDLVEFFCQQYNSYPYTFGGGTKLEIK
notes: human IgG1/kappa; also called 2H8_HCvar4 + 2H8_LCvar7
B3: 2H8.21 (antibody, human IgG1, V domains shown)
VH: EVQLQQSGAELVRPGTSVKLSCKASGYTFTSYWIHWVKQRPGQGLEWIGMIDPSDSYTKYNQKFKDKATLTVDTSSSTTYMHLSSLTSEDSAVYYCARSGVAFPYWGQRTLVTVSA
VL: DIVMTQSQKFMSTSVGDRVSITCKASQNVGTNVAWYQQKPGQSPKALIYSASYRYSGVPDRFTGSGSGTDFTLTISNVQSEDLAEYFCQQYNSYPYTFGGGTKLEIK
notes: human IgG1/kappa; also called 2H8_HCvar3 + 2H8_LCvar4
B4: 2H8.16 (antibody, human IgG1, V domains shown)
VH: EIQLQQSGTELVRPGTSVKLSCKASGYTFTNYWMHWVKQRPGQGLEWIGMIDPSAAYTNYNQNFKGKATLTVDTSSGTAYMQLSSLTSEDSAVYYCARSGVAFPYWGQGTTVTVSS
VL: DIQMTQSQKFMSTSIGDRVSVTCKASQNVGTNVAWYQQKPGQSPKSLIYSASHWYSGVPDRFTGSGSGTDFTLTISNVQSEDLAEYFCQQYNSYPYTFGGGTKLEIK
notes: human IgG1/kappa; also called 2H8_HCvar4 + 2H8_LCvar3
B5: 2H8.27 (antibody, human IgG1, V domains shown)
VH: EVQLQQSGAELVRPGTSVKLSCKASGYTFTSYWIHWVKQRPGQGLEWIGMIDPSDSYTKYNQKFKDKATLTVDTSSSTTYMHLSSLTSEDSAVYYCARSGVAFPYWGQRTLVTVSA
VL: DIVMTQSQKFMSTSVGDRVSVTCKASQNVGTNVAWYQQKSGQSPKALIYSASHRYSGVPDRFTGSGSGTDFTLTISNVQSEDLAEYFCQQYNSYPYTFGGGTKLEIK
notes: human IgG1/kappa; also called 2H8_HCvar3 + 2H8_LCvar5
B6: 2H8.34 (antibody, human IgG1, V domains shown)
VH: EIQLQQSGTELVRPGTSVKLSCKASGYTFTNYWMHWVKQRPGQGLEWIGMIDPSAAYTNYNQNFKGKATLTVDTSSGTAYMQLSSLTSEDSAVYYCARSGVAFPYWGQGTTVTVSS
VL: DIQMTQSQKFMSKSVGDRVSVTCKASQNVGSNVAWYQQKSGQSPKSLIYSASHRYSGVPDRFTGSGSGTDFTLTISNVQSEDLADYFCQQYNSYPYTFGGGTRLEIK
notes: human IgG1/kappa; also called 2H8_HCvar4 + 2H8_LCvar6
B7: 2H8.09 (antibody, human IgG1, V domains shown)
VH: EVQLQQSGAELVRPGTSVKLSCKASGYTFTSYWIHWVKQRPGQGLEWIGMIDPSDSYTKYNQKFKDKATLTVDTSSSTTYMHLSSLTSEDSAVYYCARSGVAFPYWGQRTLVTVSA
VL: DIVMTQSQKFMSTSVGDRVSVTCKASQNVGTNVAWYQQKPGQSPKALIYSASHRYSGVPDRFTGSGSGTDFTLTISNVQSEDLAEYFCQQYNSYMYTFGGGTKLEIK
notes: human IgG1/kappa; also called 2H8_HCvar3 + 2H8_LCvar2
B8: 2H8.15 (antibody, human IgG1, V domains shown)
VH: EVQLQQSGAELVRPGTSVKLSCKASGYTFTSYWIHWVKQRPGQGLEWIGMIDPSDSYTKYNQKFKDKATLTVDTSSSTTYMHLSSLTSEDSAVYYCARSGVAFPYWGQRTLVTVSA
VL: DIQMTQSQKFMSTSIGDRVSVTCKASQNVGTNVAWYQQKPGQSPKSLIYSASHWYSGVPDRFTGSGSGTDFTLTISNVQSEDLAEYFCQQYNSYPYTFGGGTKLEIK
notes: human IgG1/kappa; also called 2H8_HCvar3 + 2H8_LCvar3
B9: 2H8.36 (antibody, human IgG1, V domains shown)
VH: EVQLQQSGAELVRPGTSVKLSCKASGYTFNNYWMHWVKQRPGQGLEWIGMIDPSDDDIKNNQKFKGKATLTVDTSSSTAYMQLISLTSEDSAVYYCARSGVALPYWGQGTLVTVSA
VL: DIQMTQSQKFMSKSVGDRVSVTCKASQNVGSNVAWYQQKSGQSPKSLIYSASHRYSGVPDRFTGSGSGTDFTLTISNVQSEDLADYFCQQYNSYPYTFGGGTRLEIK
notes: human IgG1/kappa; also called 2H8_HCvar6 + 2H8_LCvar6
B10: 2H8.12 (antibody, human IgG1, V domains shown)
VH: EVQLQQSGAELVRPGTSVKLSCKASGYTFNNYWMHWVKQRPGQGLEWIGMIDPSDDDIKNNQKFKGKATLTVDTSSSTAYMQLISLTSEDSAVYYCARSGVALPYWGQGTLVTVSA
VL: DIVMTQSQKFMSTSVGDRVSVTCKASQNVGTNVAWYQQKPGQSPKALIYSASHRYSGVPDRFTGSGSGTDFTLTISNVQSEDLAEYFCQQYNSYMYTFGGGTKLEIK
notes: human IgG1/kappa; also called 2H8_HCvar6 + 2H8_LCvar2
B11: 2H8.18 (antibody, human IgG1, V domains shown)
VH: EVQLQQSGAELVRPGTSVKLSCKASGYTFNNYWMHWVKQRPGQGLEWIGMIDPSDDDIKNNQKFKGKATLTVDTSSSTAYMQLISLTSEDSAVYYCARSGVALPYWGQGTLVTVSA
VL: DIQMTQSQKFMSTSIGDRVSVTCKASQNVGTNVAWYQQKPGQSPKSLIYSASHWYSGVPDRFTGSGSGTDFTLTISNVQSEDLAEYFCQQYNSYPYTFGGGTKLEIK
notes: human IgG1/kappa; also called 2H8_HCvar6 + 2H8_LCvar3
B12: 2H8.24 (antibody, human IgG1, V domains shown)
VH: EVQLQQSGAELVRPGTSVKLSCKASGYTFNNYWMHWVKQRPGQGLEWIGMIDPSDDDIKNNQKFKGKATLTVDTSSSTAYMQLISLTSEDSAVYYCARSGVALPYWGQGTLVTVSA
VL: DIVMTQSQKFMSTSVGDRVSITCKASQNVGTNVAWYQQKPGQSPKALIYSASYRYSGVPDRFTGSGSGTDFTLTISNVQSEDLAEYFCQQYNSYPYTFGGGTKLEIK
notes: human IgG1/kappa; also called 2H8_HCvar6 + 2H8_LCvar4
B13: hu2H8v1 (antibody, V domains shown)
VH: QVQLVQSGAEVKKPGASVKVSCKASGYTFTNFWIHWVRQAPGQGLEWMGMIDPSDSYTKYNQKFKARVTMTRDTSTSTTYMELSSLRSEDTAVYYCARSGVAFPYWGQGTLVTVSS
VL: DIQMTQSPSSLSASVGDRVTITCKASQDVGRNVAWYQQKPGKAPKLLIYSASHRYSGVPSRFSGSGSGTDFTLTISSLQPEDFATYYCQQYNSYPYTFGQGTKVEIK
notes: humanized; also called hu2H8_HC1 + hu2H8_LC1
B14: hu2H8v2 (antibody, V domains shown)
VH: QVQLVQSGAEVKKPGASVKVSCKASGYTFTNFWIHWLRQAPGQGLEWMGMIDPSDSYTKYNQKFKARVTMTRDTSTSTTYMELSSLRSEDTAVYYCARSGVAFPYWGQGTLVTVSS
VL: DIQMTQSPSSLSASVGDRVTITCKASQDVGRNVAWYQQKPGKAPKLLIYSASHRYSGVPSRFSGSGSGTDFTLTISSLQPEDFATYYCQQYNSYPYTFGQGTKVEIK
notes: humanized; also called hu2H8_HC2 + hu2H8_LC1

T1 sequence (P56817 22-457): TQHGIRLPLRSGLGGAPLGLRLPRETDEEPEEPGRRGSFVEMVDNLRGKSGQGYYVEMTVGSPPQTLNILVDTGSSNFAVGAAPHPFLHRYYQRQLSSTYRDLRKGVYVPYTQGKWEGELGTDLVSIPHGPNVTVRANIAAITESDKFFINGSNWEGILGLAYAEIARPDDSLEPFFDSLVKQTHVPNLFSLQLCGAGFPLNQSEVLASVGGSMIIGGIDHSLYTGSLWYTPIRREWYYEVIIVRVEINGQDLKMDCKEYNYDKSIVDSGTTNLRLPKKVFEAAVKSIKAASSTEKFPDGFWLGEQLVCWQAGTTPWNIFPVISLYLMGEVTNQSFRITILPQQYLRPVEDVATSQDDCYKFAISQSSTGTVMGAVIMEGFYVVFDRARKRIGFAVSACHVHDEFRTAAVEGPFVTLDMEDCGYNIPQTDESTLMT

One experiment addresses T1, recombinant BACE1 (BACE1 extracellular domain, R&D Systems Cat#931-AS) (UniProt P56817 22-457).
T1 construct: extracellular domain; also called BACE1 extracellular domain protein
Kind of experiment: SPR Biacore. In general terms: SPR reads the build-up and loss of mass on a sensor chip optically.
For B1, the Kd (usually a measure of binding affinity in units of concentration) is 16 nM; the koff – broadly, a measure of how fast the partners let go of each other – amounted to 0.000264 s⁻¹; the kon (usually a measure of how fast the partners come together) turned out to be 16500 M⁻¹ s⁻¹.

On to B2, for which the Kd came to 19.1 nM, the off-rate constant (koff) came out at 0.000456 s⁻¹ and the kon amounted to 23900 M⁻¹ s⁻¹.

Consider B3, for which the Kd was 90.5 nM, the koff was determined as 0.00104 s⁻¹ and the kon was 11400 M⁻¹ s⁻¹.

On to B4, for which the Kd is 37.8 nM, the koff came to 0.000631 s⁻¹ and the kon turned out to be 16700 M⁻¹ s⁻¹.

On to B5, for which the Kd came out at 17 nM, the koff stood at 0.00024 s⁻¹ and the kon worked out at 14100 M⁻¹ s⁻¹.

For the molecule B6, the Kd amounted to 25.5 nM, the koff was 0.000425 s⁻¹ and the kon is 16700 M⁻¹ s⁻¹.

B7: the Kd was determined as 18.3 nM, the koff was found to be 0.000228 s⁻¹ and the on-rate constant (kon) was determined as 12500 M⁻¹ s⁻¹.

Turning to B8, the Kd was found to be 22.8 nM, the koff stood at 0.000278 s⁻¹ and the kon is 12200 M⁻¹ s⁻¹.

As to B9, the Kd is 23.5 nM, the koff was determined as 0.000273 s⁻¹ and the kon stood at 11600 M⁻¹ s⁻¹.

B10: the Kd is 171 nM, the koff amounted to 0.00166 s⁻¹ and the kon was determined as 9680 M⁻¹ s⁻¹.

In the case of B11, the Kd worked out at 32.4 nM, the koff is 0.00039 s⁻¹ and the kon came to 12000 M⁻¹ s⁻¹.

Turning to B12, the Kd came to 183 nM, the koff was 0.00243 s⁻¹ and the kon came out at 13300 M⁻¹ s⁻¹.

A further experiment concerns the target T1, recombinant BACE1 (BACE1 extracellular …). The experiment can be described thus: SPR Biacore. This is another data set of the same source.
With B13, the Kd was found to be 135 nM.

For B14, the Kd was 185 nM.
